Measurements taken from publication PMC8647145, “Foxd3 controls heterochromatin‐mediated repression of repeat elements and 2‐cell state transcription”.

T1: GST-FOXD3 (mouse, UniProt Q61060 1-465)
T1 sequence: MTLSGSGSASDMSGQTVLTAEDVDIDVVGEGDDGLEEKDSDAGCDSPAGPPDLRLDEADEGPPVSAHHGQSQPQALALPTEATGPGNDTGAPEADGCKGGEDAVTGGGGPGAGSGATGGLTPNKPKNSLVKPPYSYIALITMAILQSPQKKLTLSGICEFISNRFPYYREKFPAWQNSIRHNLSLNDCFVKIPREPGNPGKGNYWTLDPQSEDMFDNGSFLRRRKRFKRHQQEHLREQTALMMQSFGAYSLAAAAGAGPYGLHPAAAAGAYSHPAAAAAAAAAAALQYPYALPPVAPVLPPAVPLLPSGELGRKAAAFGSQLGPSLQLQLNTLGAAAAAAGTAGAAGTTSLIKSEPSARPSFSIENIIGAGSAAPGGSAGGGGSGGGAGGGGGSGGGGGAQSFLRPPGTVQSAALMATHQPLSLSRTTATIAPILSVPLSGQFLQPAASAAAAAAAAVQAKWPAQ


target: T1, GST-FOXD3; assay: EMSA; EMSA: 50 nM DNA, 20 mM Tris-HCl pH 8.0, 100 mM KCl, 3 mM MgCl2, 1 mM EDTA, 5% glycerol, 0.05% NP-40, 2 mM DTT, 50 ng/ml yeast tRNA, 2.5 ng/ml BSA, 4 C, 1 h; settings: protein: recombinant; tags: N-terminal GST (pGEX-6P1); label: 5'-Cy5; blunt

Row | Binder | binding result
1 | MERVL-int (dsDNA) DNA 1: CCATCTTTTGATAAACACCTCAGCCAACCATTCAA DNA 2: TTGAATGGTTGGCTGAGGTGTTTATCAAAAGATGG | binds
2 | MERVL-LTR (dsDNA) DNA 1: CAGCTGTGTTCTAAGTGGTAAACAAATAATCTGCG DNA 2: CGCAGATTATTTGTTTACCACTTAGAACACAGCTG | binds
3 | MSR (dsDNA) DNA 1: CTGAAAATCATGGAAAATGAGAAACATCCACTTGA DNA 2: TCAAGTGGATGTTTCTCATTTTCCATGATTTTCAG | binds
4 | Sox15 (dsDNA) DNA 1: CAGAGGCTACTCTGAAACAAATAAAGAGATATAAA DNA 2: TTTATATCTCTTTATTTGTTTCAGAGTAGCCTCTG | binds

target: T1, GST-FOXD3; assay: EMSA; up to 2.5 uM protein; EMSA: 50 nM DNA, 20 mM Tris-HCl pH 8.0, 100 mM KCl, 3 mM MgCl2, 1 mM EDTA, 5% glycerol, 0.05% NP-40, 2 mM DTT, 50 ng/ml yeast tRNA, 2.5 ng/ml BSA, 4 C, 1 h; settings: protein: recombinant; tags: N-terminal GST (pGEX-6P1); label: 5'-Cy5; blunt

Row | Binder | binding result
5 | L1MdA (dsDNA) DNA 1: GTACATAGGGAAGCAGGCTACCCGGGCCTGATCTG DNA 2: CAGATCAGGCCCGGGTAGCCTGCTTCCCTATGTAC | no binding
6 | MERVL-LTR_MUT (dsDNA) DNA 1: CAGCTGTGTTCTAAGTGGTACACGCCTAATCTGCG DNA 2: CGCAGATTAGGCGTGTACCACTTAGAACACAGCTG | no binding
7 | Hprt (dsDNA) DNA 1: AGGGCGGGCCGAGGGGCGGAGCCTGGCCGGCAGCG DNA 2: CGCTGCCGGCCAGGCTCCGCCCCTCGGCCCGCCCT | no binding
8 | MSR_MUT (dsDNA) DNA 1: CTGAAAATCATGGAAAATGCGTGACGGCGACTTGA DNA 2: TCAAGTCGCCGTCACGCATTTTCCATGATTTTCAG | no binding
